Measurements taken from paper PMC7367873, “Dissecting the sequence determinants for dephosphorylation by the catalytic subunits of phosphatases PP1 and PP2A” (Nature Communications, 2020).

B1: RASAL2 (protein, UniProt Q9UJF2 1-1139, looked up)
Ras GTPase-activating protein …: MQTPEVPAERSPRRRSISGTSTSEKPNSMDTANTSPFKVPGFFSKRLKGSIKRTKSQSKLDRNTSFRLPSLRSTDDRSRGLPKLKESRSHESLLSPCSTVECLDLGRGEPVSVKPLHSSILGQDFCFEVTYLSGSKCFSCNSASERDKWMENLRRTVQPNKDNCRRAENVLRLWIIEAKDLAPKKKYFCELCLDDTLFARTTSKTKADNIFWGEHFEFFSLPPLHSITVHIYKDVEKKKKKDKNNYVGLVNIPTASVTGRQFVEKWYPVSTPTPNKGKTGGPSIRIKSRFQTITILPMEQYKEFAEFVTSNYTMLCSVLEPVISVRNKEELACALVHILQSTGRAKDFLTDLVMSEVDRCGEHDVLIFRENTIATKSIEEYLKLVGQQYLHDALGEFIKALYESDENCEVDPSKCSSSELIDHQSNLKMCCELAFCKIINSYCVFPRELKEVFASWKQQCLNRGKQDISERLISASLFLRFLCPAIMSPSLFNLMQEYPDDRTSRTLTLIAKVIQNLANFAKFGNKEEYMAFMNDFLEHEWGGMKRFLLEISNPDTISNTPGFDGYIDLGRELSVLHSLLWEVVSQLDKGENSFLQATVAKLGPLPRVLADITKSLTNPTPIQQQLRRFTEHNSSPNVSGSLSSGLQKIFEDPTDSDLHKLKSPSQDNTDSYFRGKTLLLVQQASSQSMTYSEKDERESSLPNGRSVSLMDLQDTHAAQVEHASVMLDVPIRLTGSQLSITQVASIKQLRETQSTPQSAPQVRRPLHPALNQPGGLQPLSFQNPVYHLNNPIPAMPKASIDSSLENLSTASSRSQSNSEDFKLSGPSNSSMEDFTKRSTQSEDFSRRHTVPDRHIPLALPRQNSTGQAQIRKVDQGGLGARAKAPPSLPHSASLRSTGSMSVVSAALVAEPVQNGSRSRQQSSSSRESPVPKVRAIQRQQTQQVQSPVDSATMSPVERTAAWVLNNGQYEEDVEETEQNLDEAKHAEKYEQEITKLKERLRVSSRRLEEYERRLLVQEQQMQKLLLEYKARLEDSEERLRRQQEEKDSQMKSIISRLMAVEEELKKDHAEMQAVIDAKQKIIDAQEKRIVSLDSANTRLMSALTQVKERYSMQVRNGISPTNPTKLSITENGEFKNSSC
B2: CPT1A (protein, UniProt P50416 2-773, looked up)
Carnitine …: AEAHQAVAFQFTVTPDGIDLRLSHEALRQIYLSGLHSWKKKFIRFKNGIITGVYPASPSSWLIVVVGVMTTMYAKIDPSLGIIAKINRTLETANCMSSQTKNVVSGVLFGTGLWVALIVTMRYSLKVLLSYHGWMFTEHGKMSRATKIWMGMVKIFSGRKPMLYSFQTSLPRLPVPAVKDTVNRYLQSVRPLMKEEDFKRMTALAQDFAVGLGPRLQWYLKLKSWWATNYVSDWWEEYIYLRGRGPLMVNSNYYAMDLLYILPTHIQAARAGNAIHAILLYRRKLDREEIKPIRLLGSTIPLCSAQWERMFNTSRIPGEETDTIQHMRDSKHIVVYHRGRYFKVWLYHDGRLLKPREMEQQMQRILDNTSEPQPGEARLAALTAGDRVPWARCRQAYFGRGKNKQSLDAVEKAAFFVTLDETEEGYRSEDPDTSMDSYAKSLLHGRCYDRWFDKSFTFVVFKNGKMGLNAEHSWADAPIVAHLWEYVMSIDSLQLGYAEDGHCKGDINPNIPYPTRLQWDIPGECQEVIETSLNTANLLANDVDFHSFPFVAFGKGIIKKCRTSPDAFVQLALQLAHYKDMGKFCLTYEASMTRLFREGRTETVRSCTTESCDFVRAMVDPAQTVEQRLKLFKLASEKHQHMYRLAMTGSGIDRHLFCLYVVSKYLAVESPFLKEVLSEPWRLSTSQTPQQQVELFDLENNPEYVSSGGGFGPVADDGYGVSYILVGENLINFHISSKFSCPETDSHRFGRHLKEAMTDIITLFGLSSNSKK
B3: ATXN2 (protein, UniProt Q99700 1-1313, looked up)
Ataxin-2: MRSAAAAPRSPAVATESRRFAAARWPGWRSLQRPARRSGRGGGGAAPGPYPSAAPPPPGPGPPPSRQSSPPSASDCFGSNGNGGGAFRPGSRRLLGLGGPPRPFVVLLLPLASPGAPPAAPTRASPLGARASPPRSGVSLARPAPGCPRPACEPVYGPLTMSLKPQQQQQQQQQQQQQQQQQQQQQQQPPPAAANVRKPGGSGLLASPAAAPSPSSSSVSSSSATAPSSVVAATSGGGRPGLGRGRNSNKGLPQSTISFDGIYANMRMVHILTSVVGSKCEVQVKNGGIYEGVFKTYSPKCDLVLDAAHEKSTESSSGPKREEIMESILFKCSDFVVVQFKDMDSSYAKRDAFTDSAISAKVNGEHKEKDLEPWDAGELTANEELEALENDVSNGWDPNDMFRYNEENYGVVSTYDSSLSSYTVPLERDNSEEFLKREARANQLAEEIESSAQYKARVALENDDRSEEEKYTAVQRNSSEREGHSINTRENKYIPPGQRNREVISWGSGRQNSPRMGQPGSGSMPSRSTSHTSDFNPNSGSDQRVVNGGVPWPSPCPSPSSRPPSRYQSGPNSLPPRAATPTRPPSRPPSRPSRPPSHPSAHGSPAPVSTMPKRMSSEGPPRMSPKAQRHPRNHRVSAGRGSISSGLEFVSHNPPSEAATPPVARTSPSGGTWSSVVSGVPRLSPKTHRPRSPRQNSIGNTPSGPVLASPQAGIIPTEAVAMPIPAASPTPASPASNRAVTPSSEAKDSRLQDQRQNSPAGNKENIKPNETSPSFSKAENKGISPVVSEHRKQIDDLKKFKNDFRLQPSSTSESMDQLLNKNREGEKSRDLIKDKIEPSAKDSFIENSSSNCTSGSSKPNSPSISPSILSNTEHKRGPEVTSQGVQTSSPACKQEKDDKEEKKDAAEQVRKSTLNPNAKEFNPRSFSQPKPSTTPTSPRPQAQPSPSMVGHQQPTPVYTQPVCFAPNMMYPVPVSPGVQPLYPIPMTPMPVNQAKTYRAVPNMPQQRQDQHHQSAMMHPASAAGPPIAATPPAYSTQYVAYSPQQFPNQPLVQHVPHYQSQHPHVYSPVIQGNARMMAPPTHAQPGLVSSSATQYGAHEQTHAMYACPKLPYNKETSPSFYFAISTGSLAQQYAHPNATLHPHTPHPQPSATPTGQQQSQHGGSHPAPSPVQHHQHQAAQALHLASPQQQSAIYHAGLAPTPPSMTPASNTQSPQNSFPAAQQTVFTIHPSHVQPAYTNPPHMAHVPQAHVQSGMVPSHPTAHAPMMLMTTQPPGGPQAALAQSALQPIPVSTTAHFPYMTHPSVQAHHQQQL
B4: CPM (protein, UniProt P14384 18-423, looked up)
Carboxypeptidase M: LDFNYHRQEGMEAFLKTVAQNYSSVTHLHSIGKSVKGRNLWVLVVGRFPKEHRIGIPEFKYVANMHGDETVGRELLLHLIDYLVTSDGKDPEITNLINSTRIHIMPSMNPDGFEAVKKPDCYYSIGRENYNQYDLNRNFPDAFEYNNVSRQPETVAVMKWLKTETFVLSANLHGGALVASYPFDNGVQATGALYSRSLTPDDDVFQYLAHTYASRNPNMKKGDECKNKMNFPNGVTNGYSWYPLQGGMQDYNYIWAQCFEITLELSCCKYPREEKLPSFWNNNKASLIEYIKQVHLGVKGQVFDQNGNPLPNVIVEVQDRKHICPYRTNKYGEYYLLLLPGSYIINVTVPGHDPHITKVIIPEKSQNFSALKKDILLPFQGQLDSIPVSNPSCPMIPLYRNLPDHS

What follows are molecules tested on GFP-14-3-3β and its binding proteins (assay: GFP-14-3-3β co-IP with LC-MS/MS label-free quantification, untreated versus PP1c-treated). Conditions: PP1 vs untreated; LFQ intensities; 3 replicates each.
Parameters: species or system human

| Molecule | Difference (log2), PP1 vs untreated |
| --- | --- |
| B1 | 0.5963 log2 |
| B2 | 0.596 log2 |
| B3 | 0.5906 log2 |
| B4 | 0.5874 log2 |

The molecules below were run on GFP-14-3-3β (assay: GFP-14-3-3β co-IP with LC-MS/MS, untreated GFP-14-3-3β versus GFP control (14-3-3 interactome)). Conditions: untreated vs GFP; LFQ intensities; 3 replicates each.
Format: binding, human

| Molecule | Difference (log2), untreated vs GFP |
| --- | --- |
| B1 | 1.812 log2 |
| B2 | 1.035 log2 |
| B3 | 1.35 log2 |
| B4 | -1.988 log2 |
